According to article PMC12833063:

Molecular target: anti-PD-L1×avβ3 dual function antibody (B1451)
Experiment: SPR; Biacore T200; B1451 captured at about 35 RU on anti-human IgG (Fc) immobilised on a CM5 chip; human αvβ3 injected, 2-fold dilutions 12.5-400 nM, association 120 s; regeneration 10 mM glycine-HCl pH 1.5; 1:1 binding model

Chain of human αvβ3 (P06756 31-1048): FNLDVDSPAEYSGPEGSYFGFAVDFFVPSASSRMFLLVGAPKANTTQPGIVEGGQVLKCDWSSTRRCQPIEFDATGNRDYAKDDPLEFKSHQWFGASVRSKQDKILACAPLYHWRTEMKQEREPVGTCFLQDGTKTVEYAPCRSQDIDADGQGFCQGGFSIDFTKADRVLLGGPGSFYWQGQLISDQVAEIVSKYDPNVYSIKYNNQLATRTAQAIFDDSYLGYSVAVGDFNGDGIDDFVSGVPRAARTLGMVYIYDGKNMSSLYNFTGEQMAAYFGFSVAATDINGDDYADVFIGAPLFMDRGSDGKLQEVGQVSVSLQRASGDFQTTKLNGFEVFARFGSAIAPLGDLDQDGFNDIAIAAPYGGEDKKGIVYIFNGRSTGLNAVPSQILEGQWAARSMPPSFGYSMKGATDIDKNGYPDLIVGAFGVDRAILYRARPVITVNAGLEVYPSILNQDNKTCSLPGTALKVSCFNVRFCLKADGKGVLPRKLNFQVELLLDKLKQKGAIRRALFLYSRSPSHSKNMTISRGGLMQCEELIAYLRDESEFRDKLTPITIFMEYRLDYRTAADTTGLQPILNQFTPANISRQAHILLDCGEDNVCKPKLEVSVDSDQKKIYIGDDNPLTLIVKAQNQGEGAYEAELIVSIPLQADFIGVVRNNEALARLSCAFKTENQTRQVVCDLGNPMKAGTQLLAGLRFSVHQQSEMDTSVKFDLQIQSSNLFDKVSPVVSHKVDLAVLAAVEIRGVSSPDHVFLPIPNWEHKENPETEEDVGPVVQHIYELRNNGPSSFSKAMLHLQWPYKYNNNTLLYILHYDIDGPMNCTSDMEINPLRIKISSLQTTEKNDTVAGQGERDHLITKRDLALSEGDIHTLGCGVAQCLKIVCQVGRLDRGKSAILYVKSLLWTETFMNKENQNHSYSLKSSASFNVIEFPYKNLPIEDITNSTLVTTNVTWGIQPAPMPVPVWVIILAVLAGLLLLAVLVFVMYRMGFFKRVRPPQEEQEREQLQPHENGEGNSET
Chain of human αvβ3 (P05106 27-718): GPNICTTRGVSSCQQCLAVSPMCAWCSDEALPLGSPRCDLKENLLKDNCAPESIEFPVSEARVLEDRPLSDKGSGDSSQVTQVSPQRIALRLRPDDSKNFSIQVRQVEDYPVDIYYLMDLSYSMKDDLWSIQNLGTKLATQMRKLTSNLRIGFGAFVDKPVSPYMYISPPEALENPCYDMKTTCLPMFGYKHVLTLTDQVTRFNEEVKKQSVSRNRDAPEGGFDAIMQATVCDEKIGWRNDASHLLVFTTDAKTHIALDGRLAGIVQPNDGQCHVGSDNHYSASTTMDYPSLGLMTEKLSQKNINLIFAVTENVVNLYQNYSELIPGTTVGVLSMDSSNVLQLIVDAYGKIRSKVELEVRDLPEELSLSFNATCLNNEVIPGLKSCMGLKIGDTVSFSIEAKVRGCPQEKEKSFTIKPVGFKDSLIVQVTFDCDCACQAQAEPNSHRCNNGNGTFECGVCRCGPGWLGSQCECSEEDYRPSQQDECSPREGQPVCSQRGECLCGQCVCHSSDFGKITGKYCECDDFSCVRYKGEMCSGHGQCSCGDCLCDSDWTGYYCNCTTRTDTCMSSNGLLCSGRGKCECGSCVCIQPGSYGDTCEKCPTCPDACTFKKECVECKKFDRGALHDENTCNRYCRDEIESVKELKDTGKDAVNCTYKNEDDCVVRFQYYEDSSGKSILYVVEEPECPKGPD

human αvβ3 (from UniProt P06756 31-1048; P05106 27-718) (complex)
Kd: 15.5 µM
